Results published in patent US20140087995A1 (published 2014).
Numbered stars: 1 amine (or outer) side, 2 acyl side, 3 side chain; on linkers, the order of the positions; unused ones are H or OH. Bridge positions count the residues as written; N and C are the ends. Side chains are listed from the residue outwards. Ends that are not written are not given here. * marks the point of attachment. C20 diacid = O=C(O)CCCCCCCCCCCCCCCCCCC(=O)*; γGlu = O=C(O)[C@H](CCC(=O)[*:2])N[*:1]; AEEA = NCCOCCOCC(=O)O

B1: N^ε1-[2-[2-[2-[[(4S)-4-carboxy-4-(19-carboxynonadecanoylamino)butanoyl]amino]ethoxy]ethoxy]acetyl]-[Arg17,Pro21,Pro27,His34]-h-amylin (peptide)
peptide: K([AEEA-γGlu-C20 diacid])CNTATCATQRLANFLRHSSPNFGAIPSSTNVGHNTY-NH2
modifications: disulfide 2-7; N-terminus assumed
SMILES: CC[C@H](C)[C@H](NC(=O)[C@H](C)NC(=O)CNC(=O)[C@H](Cc1ccccc1)NC(=O)[C@H](CC(N)=O)NC(=O)[C@@H]1CCCN1C(=O)[C@H](CO)NC(=O)[C@H](CO)NC(=O)[C@H](Cc1c[nH]cn1)NC(=O)[C@H](CCCNC(=N)N)NC(=O)[C@H](CC(C)C)NC(=O)[C@H](Cc1ccccc1)NC(=O)[C@H](CC(N)=O)NC(=O)[C@H](C)NC(=O)[C@H](CC(C)C)NC(=O)[C@H](CCCNC(=N)N)NC(=O)[C@H](CCC(N)=O)NC(=O)[C@@H](NC(=O)[C@H](C)NC(=O)[C@@H]1CSSC[C@H](NC(=O)[C@@H](N)CCCCNC(=O)COCCOCCNC(=O)CC[C@H](NC(=O)CCCCCCCCCCCCCCCCCCC(=O)O)C(=O)O)C(=O)N[C@@H](CC(N)=O)C(=O)N[C@@H]([C@@H](C)O)C(=O)N[C@@H](C)C(=O)N[C@@H]([C@@H](C)O)C(=O)N1)[C@@H](C)O)C(=O)N1CCC[C@H]1C(=O)N[C@@H](CO)C(=O)N[C@@H](CO)C(=O)N[C@H](C(=O)N[C@@H](CC(N)=O)C(=O)N[C@H](C(=O)NCC(=O)N[C@@H](Cc1c[nH]cn1)C(=O)N[C@@H](CC(N)=O)C(=O)N[C@H](C(=O)N[C@@H](Cc1ccc(O)cc1)C(N)=O)[C@@H](C)O)C(C)C)[C@@H](C)O
notes: Analogue of human amylin; also called compound 76
B2: N^ε1-[2-[2-[2-[[(4S)-4-carboxy-4-(19-carboxynonadecanoylamino)butanoyl]amino]ethoxy]ethoxy]acetyl]-[Arg17,Pro21,Pro27,Pro28,Pro34]-h-amylin (peptide)
peptide: K([AEEA-γGlu-C20 diacid])CNTATCATQRLANFLRHSSPNFGAIPPSTNVGPNTY-NH2
modifications: disulfide 2-7; N-terminus assumed
SMILES: CC[C@H](C)[C@H](NC(=O)[C@H](C)NC(=O)CNC(=O)[C@H](Cc1ccccc1)NC(=O)[C@H](CC(N)=O)NC(=O)[C@@H]1CCCN1C(=O)[C@H](CO)NC(=O)[C@H](CO)NC(=O)[C@H](Cc1c[nH]cn1)NC(=O)[C@H](CCCNC(=N)N)NC(=O)[C@H](CC(C)C)NC(=O)[C@H](Cc1ccccc1)NC(=O)[C@H](CC(N)=O)NC(=O)[C@H](C)NC(=O)[C@H](CC(C)C)NC(=O)[C@H](CCCNC(=N)N)NC(=O)[C@H](CCC(N)=O)NC(=O)[C@@H](NC(=O)[C@H](C)NC(=O)[C@@H]1CSSC[C@H](NC(=O)[C@@H](N)CCCCNC(=O)COCCOCCNC(=O)CC[C@H](NC(=O)CCCCCCCCCCCCCCCCCCC(=O)O)C(=O)O)C(=O)N[C@@H](CC(N)=O)C(=O)N[C@@H]([C@@H](C)O)C(=O)N[C@@H](C)C(=O)N[C@@H]([C@@H](C)O)C(=O)N1)[C@@H](C)O)C(=O)N1CCC[C@H]1C(=O)N1CCC[C@H]1C(=O)N[C@@H](CO)C(=O)N[C@H](C(=O)N[C@@H](CC(N)=O)C(=O)N[C@H](C(=O)NCC(=O)N1CCC[C@H]1C(=O)N[C@@H](CC(N)=O)C(=O)N[C@H](C(=O)N[C@@H](Cc1ccc(O)cc1)C(N)=O)[C@@H](C)O)C(C)C)[C@@H](C)O
notes: Analogue of human amylin; also called compound 55
B3: N^ε1-[2-[2-[2-[[(4S)-4-carboxy-4-(19-carboxynonadecanoylamino)butanoyl]amino]ethoxy]ethoxy]acetyl]-[Arg17,Pro21,Pro27,Pro28,Pro31]-h-amylin (peptide)
peptide: K([AEEA-γGlu-C20 diacid])CNTATCATQRLANFLRHSSPNFGAIPPSTPVGSNTY-NH2
modifications: disulfide 2-7
notes: Analogue of human amylin; also called compound 53
B4: N^ε1-[2-[2-[2-[[(4S)-4-carboxy-4-(19-carboxynonadecanoylamino)butanoyl]amino]ethoxy]ethoxy]acetyl]-[Arg17,Pro21,Pro27,Pro29,Pro31]-h-amylin (peptide)
peptide: K([AEEA-γGlu-C20 diacid])CNTATCATQRLANFLRHSSPNFGAIPSPTPVGSNTY-NH2
modifications: disulfide 2-7; N-terminus assumed
SMILES: CC[C@H](C)[C@H](NC(=O)[C@H](C)NC(=O)CNC(=O)[C@H](Cc1ccccc1)NC(=O)[C@H](CC(N)=O)NC(=O)[C@@H]1CCCN1C(=O)[C@H](CO)NC(=O)[C@H](CO)NC(=O)[C@H](Cc1c[nH]cn1)NC(=O)[C@H](CCCNC(=N)N)NC(=O)[C@H](CC(C)C)NC(=O)[C@H](Cc1ccccc1)NC(=O)[C@H](CC(N)=O)NC(=O)[C@H](C)NC(=O)[C@H](CC(C)C)NC(=O)[C@H](CCCNC(=N)N)NC(=O)[C@H](CCC(N)=O)NC(=O)[C@@H](NC(=O)[C@H](C)NC(=O)[C@@H]1CSSC[C@H](NC(=O)[C@@H](N)CCCCNC(=O)COCCOCCNC(=O)CC[C@H](NC(=O)CCCCCCCCCCCCCCCCCCC(=O)O)C(=O)O)C(=O)N[C@@H](CC(N)=O)C(=O)N[C@@H]([C@@H](C)O)C(=O)N[C@@H](C)C(=O)N[C@@H]([C@@H](C)O)C(=O)N1)[C@@H](C)O)C(=O)N1CCC[C@H]1C(=O)N[C@@H](CO)C(=O)N1CCC[C@H]1C(=O)N[C@H](C(=O)N1CCC[C@H]1C(=O)N[C@H](C(=O)NCC(=O)N[C@@H](CO)C(=O)N[C@@H](CC(N)=O)C(=O)N[C@H](C(=O)N[C@@H](Cc1ccc(O)cc1)C(N)=O)[C@@H](C)O)C(C)C)[C@@H](C)O
notes: Analogue of human amylin; also called compound 54

target: T1, rat calcitonin receptor (rat, UniProt P32214 25-516); test: ratio of binding IC50s: rat calcitonin receptor / rat amylin receptor (reference)
T1 construct: whole, on cells; Membranes prepared from transiently transfected BHK tk'ts 13 cells (Assay VIII); also called rCTR; rCT
T1 sequence (looked up): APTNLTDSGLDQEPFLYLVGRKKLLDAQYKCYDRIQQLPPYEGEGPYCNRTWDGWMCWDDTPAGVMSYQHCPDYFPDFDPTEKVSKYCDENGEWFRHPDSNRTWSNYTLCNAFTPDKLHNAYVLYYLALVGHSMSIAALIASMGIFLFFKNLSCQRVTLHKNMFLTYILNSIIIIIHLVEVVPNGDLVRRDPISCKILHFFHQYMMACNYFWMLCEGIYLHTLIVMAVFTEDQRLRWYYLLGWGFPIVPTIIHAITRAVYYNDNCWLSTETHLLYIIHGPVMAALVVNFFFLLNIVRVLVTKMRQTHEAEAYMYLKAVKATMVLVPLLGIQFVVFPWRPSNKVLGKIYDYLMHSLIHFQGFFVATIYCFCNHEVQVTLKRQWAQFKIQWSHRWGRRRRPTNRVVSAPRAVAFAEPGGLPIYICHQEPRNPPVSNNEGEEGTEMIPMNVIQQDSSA

Question: For B1, which “Ratio rCT/rAmylin binding” value is on record?
Answer: The value was 56.8.

Question: Which “Ratio rCT/rAmylin binding” value does the source give for B2 here?
Answer: The value was 77.2.

Question: Which “Ratio rCT/rAmylin binding” value does the source give for B3 here?
Answer: Its value is 130.

Question: Which “Ratio rCT/rAmylin binding” value does the source give for B4 here?
Answer: The value was 179.

target: T2, human calcitonin receptor (human, UniProt P30988 25-474); test: ratio of binding IC50s: human calcitonin receptor / human amylin receptor (reference)
T2 construct: whole, on cells; Membranes prepared from a stably transfected BHK cell line (Assay VII); also called hCTR; hCT
T2 sequence (looked up): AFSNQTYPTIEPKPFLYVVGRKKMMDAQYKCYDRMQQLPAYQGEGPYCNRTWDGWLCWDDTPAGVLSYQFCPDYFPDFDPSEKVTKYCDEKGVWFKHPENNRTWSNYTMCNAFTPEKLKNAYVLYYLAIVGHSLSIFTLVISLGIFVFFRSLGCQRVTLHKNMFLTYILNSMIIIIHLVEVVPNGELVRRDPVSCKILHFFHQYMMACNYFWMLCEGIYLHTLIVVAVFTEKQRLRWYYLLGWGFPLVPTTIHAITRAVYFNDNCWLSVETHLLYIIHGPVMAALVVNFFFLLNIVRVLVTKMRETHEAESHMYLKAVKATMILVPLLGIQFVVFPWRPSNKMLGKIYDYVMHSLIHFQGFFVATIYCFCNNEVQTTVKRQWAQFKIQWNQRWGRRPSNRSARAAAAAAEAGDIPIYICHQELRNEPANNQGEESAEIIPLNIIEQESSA
Protocol: The resulting pellet was resuspended, homogenized and centrifuged (20.000 rpm, 15 min) in a buffer containing 20 mM Na-HEPES and 0.1 mM EDTA (pH 7.4, buffer 2). The resulting pellet was resuspended in buffer 2 and protein concentration was measured (BCA protein Assay, Pierce). The homogenate was kept cold during the whole procedure. The membranes were kept at −80° C. until use. The assay was performed in a 384 well Optiplate (PerkinElmer) in a total volume of 40 ul. Membranes were mixed with SPA beads. Final concentration of membranes 35 ng/μL final and SPA beads was 0.05 mg/well. Test-compounds were dissolved in DMSO and further diluted in assay buffer (50 mM Hepes, pH 7.4, 1 mM CaCl2, 5 mM MgCl₂, 0.1% OA and 0.02% Tween20). […] The final mixture was incubated with shaking at 400 rpm for 120 min at 25° C. prior to centrifugation (1500 rpm, 10 min). Samples were analyzed on TopCounter™ (Packard). The IC₅₀ was calculated using (one site binding competition analysis) GraphPad Prism5 as a measure of receptor affinity.
Membranes were prepared in the following way; the cells were rinsed with PBS and incubated with Versene for approximately 5 min before harvesting. The cells were flushed with PBS and the cell-suspension was centrifuged for 5 min at 1000 rpm. Cells were homogenized (Ultrathurrax) in a buffer containing 20 mM Na-HEPES and 10 mM EDTA (pH 7.4) and centrifuged at 20.000 rpm for 15 min. The resulting pellet was resuspended, homogenized and centrifuged (20.000 rpm, 15 min) in a buffer containing 20 mM Na-HEPES and 0.1 mM EDTA (pH 7.4, buffer 2). The resulting pellet was resuspended in buffer 2 and protein concentration was measured (BCA protein Assay, Pierce). The homogenate was kept cold during the whole procedure. The membranes were kept at −80° C. until use. Assay was performed in a 384 well Optiplate (PerkinElmer) in a total volume of 40 ul. Membranes were mixed with SPA beads.

Question: Which “Ratio hCT/hAmylin binding” value does the source give for B1 here?
Answer: Its value is 80.

Question: B2 was tested. Which “Ratio hCT/hAmylin binding” value did it give?
Answer: Its value is 51.8.

Question: B3 was tested. Which “Ratio hCT/hAmylin binding” value did it give?
Answer: The value was 104.

Question: With B4 as the binder, how does the “Ratio hCT/hAmylin binding” value read?
Answer: Its value is 146.

target: T1, rat calcitonin receptor; test: SPA competition vs 125I-calcitonin, membranes of BHK cells with rat calcitonin receptor (Assay VIII)

Question: For B1, which IC50 is on record?
Answer: The IC50 was 38.9 nM.

Question: Which IC50 does the source give for B2 here?
Answer: The IC50 was 6.25 nM.

Question: Which IC50 does the source give for B3 here?
Answer: The IC50 was 10.9 nM.

Question: Which IC50 does the source give for B4 here?
Answer: Its IC50 is 8.79 nM.

target: T3, rat amylin receptor (rat calcitonin receptor + rat RAMP 3) (rat, UniProt P32214 25-516; Q9JJ73 23-147); test: SPA competition vs 125I-rat amylin, membranes of BHK cells with rat calcitonin receptor + rat RAMP3 (Assay VI)
T3 construct: whole, on cells; Membranes prepared from transiently transfected BHK tk'ts 13 cells (Assay VI); also called rAmylin-R; rAmylin
T3 sequence (looked up) 1: T1 sequence (looked up)
T3 sequence (looked up) 2: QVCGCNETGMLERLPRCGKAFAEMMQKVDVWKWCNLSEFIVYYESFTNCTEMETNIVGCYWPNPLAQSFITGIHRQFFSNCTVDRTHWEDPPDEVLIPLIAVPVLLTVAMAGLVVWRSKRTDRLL
Protocol: The binding assay was performed using scintillation proximity assay (SPA) beads (RPNQ0001) from PerkinElmer and cell membranes from the Amylin 3(a)/CRE-luc cells (as described in Assay (II)) were used. Membranes were prepared in the following way; the cells were rinsed with PBS and incubated with Versene for approximately 5 min before harvesting. The cells were flushed with PBS and the cell-suspension was centrifuged for 5 min at 1000 rpm. Cells were homogenized (ultrathurrax) in a buffer containing 20 mM Na-HEPES and 10 mM EDTA (pH 7.4) and centrifuged at 20.000 rpm for 15 min. The resulting pellet was resuspended, homogenized and centrifuged (20.000 rpm, 15 min) in a buffer containing 20 mM Na-HEPES and 0.1 mM EDTA (pH 7.4, buffer 2). The resulting pellet was resuspended in buffer 2 and protein concentration was measured (BCA protein Assay, Pierce). The homogenate was kept cold during the whole procedure. The membranes were kept at −80° C. until use. The assay was performed in a 384 well Optiplate (PerkinElmer) in a total volume of 40 ul. Membranes were mixed with SPA beads. Final concentration of membranes 35 ng/μL final and SPA beads was 0.05 mg/well. Test-compounds were dissolved in DMSO and further diluted in assay buffer (50 mM Hepes, pH 7.4, 1 mM CaCl2, 5 mM MgCl₂, 0.1% OA and 0.02% Tween20). […] The final mixture was incubated with shaking at 400 rpm for 120 min at 25° C. prior to centrifugation (1500 rpm, 10 min). Samples were analyzed on TopCounter™ (Packard). The IC₅₀ was calculated using (one site binding competition analysis) GraphPad Prism5 as a measure of receptor affinity.
Cells were grown in DMEM with 10% FBS and 1% Pen/Strep. Approximately 48 hours after transfection, the cells were harvested and membranes were prepared.

Question: B1 was tested. Which IC50 did it give?
Answer: Its IC50 is 0.686 nM.

Question: How did the IC50 turn out when B2 was run?
Answer: Its IC50 is 0.081 nM.

Question: Which IC50 does the source give for B3 here?
Answer: The IC50 was 0.084 nM.

Question: Which IC50 does the source give for B4 here?
Answer: The IC50 was 0.049 nM.
